According to publication PMC12433258, “Binding Differences of the Peptide‐Substrate–Binding Domain of Collagen Prolyl 4‐Hydroxylases I and II for Proline‐ and Hydroxyproline‐Rich Peptides” (Proteins, 2025):

Assays:
[1] = molecular target: PSB‐II^142–236 construct (peptide‐substrate–binding domain of the α‐II subunit of human collagen prolyl 4‐hydroxylase II) (human) (UniProt O15460); assay: ITC; 3 mM peptide titrated into 50 μM PSB‐II in the cell; 20 mM Tris, 50 mM NaCl, 50 mM glycine, pH 8.0; 25°C; one‐set‐of‐sites model with fixed stoichiometry (n = 1); three measurements
Sequence of PSB‐II^142–236 construct (peptide‐substrate–binding domain of the α‐II subunit of human collagen prolyl 4‐hydroxylase II) (human) (O15460 163-257): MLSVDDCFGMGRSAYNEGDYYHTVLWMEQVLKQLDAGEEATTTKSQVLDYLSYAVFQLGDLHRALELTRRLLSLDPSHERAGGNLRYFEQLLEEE

[2] = molecular target: PSB‐I^143–238 construct (peptide‐substrate–binding domain of the α‐I subunit of human collagen prolyl 4‐hydroxylase I) (human) (UniProt P13674); assay: ITC; 3 mM peptide titrated into 50 μM PSB‐I^143–238 in the cell; 20 mM Bis‐Tris, 100 mM glycine, pH 6.8; 25°C; one‐set‐of‐sites model with fixed stoichiometry (n = 1); three measurements
Sequence of PSB‐I^143–238 construct (peptide‐substrate–binding domain of the α‐I subunit of human collagen prolyl 4‐hydroxylase I) (human) (P13674 160-255): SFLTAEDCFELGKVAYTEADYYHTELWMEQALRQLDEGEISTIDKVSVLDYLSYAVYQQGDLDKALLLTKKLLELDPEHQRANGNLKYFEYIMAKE

Kd [1]: 26.2 µM
Kd [2]: 79.6 µM
dH [2]: -12.7 kcal/mol
Substance: POG‐PAG‐POG peptide
